Data reported in US20230176076.

Tested on: T1, JUL1 (JULGI) (Arabidopsis thaliana)
T1 sequence: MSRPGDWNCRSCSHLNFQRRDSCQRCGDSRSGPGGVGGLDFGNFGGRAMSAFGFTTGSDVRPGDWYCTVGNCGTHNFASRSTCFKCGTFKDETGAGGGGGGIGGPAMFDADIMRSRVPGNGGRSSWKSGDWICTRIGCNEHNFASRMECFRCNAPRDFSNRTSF
Test: EMSA
Settings: method inferred from context

Substance SMXL5 5'UTR G-quadruplex probe has a Kd (with potassium) of 0.13 µM and a Kd (without potassium) of 0.23 µM.
